The target of the experiment is biotinylated TGPAvi (Galaxea fascicularis (engineered …, biotin on the Avi-tag (enzymatic biotinylation with BirA))). In words: BLI.

This note sets out measurements from paper doi:10.64898/2025.12.23.696179 (bioRxiv, 2025).

B1: Sb32 (VHH)
VHH: QVQLVESGGGLVQAGGSLRLSCAASGFPVGQQKMTWYRQAPGKEREWVAAITSAGWFTHYADSVKGRFTISRDNAKNTVYLQMNSLKPEDTAVYYCTVKVGAEYAGQGTQVTVSA
In general, Kd refers to the free concentration of one partner at which half of the binding sites on the other are occupied at equilibrium, for simple one-to-one binding. High values mean weaker binding, low ones tighter binding. As usually defined, the koff is the rate constant with which the complex falls apart. High values mean fast dissociation, low ones slow dissociation. Usually kon stands for a measure of how fast the partners come together. Take B1: the dissociation constant Kd stood at 26 nM, the koff was 0.014 s⁻¹ and the kon stood at 530000 M⁻¹ s⁻¹.
